The target in assay [1] is HLA-A*24:02. Kind of assay: IEDB peptide-MHC binding, purified MHC/competitive/fluorescence; ≥ and ≤ were set here for values at or beyond the usual limits of such assays.
For assay [2], the target named is HLA-A*02:01. Described as above.
Assay [3] deals with HLA-B*15:01. Kind of assay: IEDB peptide-MHC binding, purified MHC/competitive/radioactivity; filed as Kd, often an IC50 or EC50 that approximates it; ≥ and ≤ were set here for values at or beyond the usual limits of such assays.
Assay [4] has as its target HLA-B*58:01. The assay is described as above.
Assay [5] addresses HLA-B*57:01. The assay is described as above.
Assay [6] deals with HLA-A*32:01. The description is as above.
In assay [7] the target is HLA-B*27:05. As to the kind of experiment: IEDB peptide-MHC binding, purified MHC/direct/fluorescence; filed as Kd, often an IC50 or EC50 that approximates it; ≥ and ≤ were set here for values at or beyond the usual limits of such assays. The note with it: source organism: Mammarenavirus lassaense.
The target of assay [8] is HLA-B*48:01. Described as above. The note with it: source organism: Mammarenavirus lassaense.
Assay [9] addresses HLA-A*11:01. Kind of assay: IEDB peptide-MHC binding, purified MHC/competitive/radioactivity; filed as Kd, often an IC50 or EC50 that approximates it; ≥ and ≤ were set here for values at or beyond the usual limits of such assays.
Assay [10] has as its target HLA-B*53:01. The assay is described as above.
In assay [11] the target is HLA-B*51:01. The description is as above. The note with it: source organism: Vaccinia virus WR.
Assay [12] has as its target HLA-A*02:06. The assay is described as above. As to conditions: source organism: Vaccinia virus WR.
The target in assay [13] is HLA-B*35:01. Described as above.
Assay [14] deals with HLA-B*54:01. Described as above. As to conditions: source organism: Vaccinia virus WR.
Assay [15] addresses HLA-A*02:01. Described as above. As to conditions: source organism: Vaccinia virus WR.
In assay [16] the target is HLA-A*68:01. Described as above. As to conditions: source organism: Vaccinia virus WR.
For assay [17], the target named is HLA-A*02:02. Described as above. The note with it: source organism: Vaccinia virus WR.
The target of assay [18] is HLA-A*31:01. The description is as above. The note with it: source organism: Vaccinia virus WR.
The target of assay [19] is HLA-A*33:01. Described as above. As to conditions: source organism: Vaccinia virus WR.
In assay [20] the target is HLA-A*68:02. The assay is described as above. The note with it: source organism: Vaccinia virus WR.
Assay [21] concerns the target HLA-A*03:01. Described as above. The note with it: source organism: Vaccinia virus WR.
In assay [22] the target is HLA-A*02:03. The assay is described as above. As to conditions: source organism: Vaccinia virus WR.
Assay [23] addresses HLA-B*07:02. The description is as above. The note with it: source organism: Vaccinia virus WR.
The mark [24] stands for this setting: source organism: Zaire ebolavirus.
[25] abbreviates: source organism: Vaccinia virus WR.
[26] abbreviates: source organism: Dengue virus 2 Jamaica/1409/1983.
Setting [27] is: source organism: Dengue virus 4 Philippines/H241/1956.
Where [28] appears, read: source organism: Dengue virus 4 Dominica/814669/1981.
[29] abbreviates: source organism: Dengue virus 1 Brazil/97-11/1997.
[30] abbreviates: source organism: Sudan ebolavirus.
[31] abbreviates: source organism: Dengue virus 3 Martinique/1243/1999.

Bounds are passed on as bounds.

In the case of FDAVLYYHM, the results for the IC50 in [1] (setting [24]) and in assay [2] (setting [24]) were 12000 nM and no less than 309000 nM, respectively.

For PVVLTGGTG, the IC50 is 69800 nM in assay [1] (source organism: Variola virus) and no less than 167000 nM in assay [2] (source organism: Variola virus).

As to KLRQIVAYF, the Kd in assay [3] (setting [25]) amounted to 7.59 nM.

Take KATREAQKRA: the figures for the dissociation constant Kd in assay [4] (setting [26]) and in assay [5] (setting [26]) were 10700 nM and 847 nM, respectively.

For the sequence TQVGTLALSL, the Kd in [3] (setting [27]) was determined as 57.2 nM.

With LSIPPTAGI, the Kd in [4] (setting [27]) stood at 24.1 nM.

Take LTSTWVMYGT: the Kd in [4] (setting [28]) was 663 nM; in [5] (setting [28]), 2540 nM.

As to MIKNLTQLF, the Kd in [3] (source organism: Vaccinia virus Copenhagen) was found to be 5.71 nM.

Take LGKAVHQVF: the Kd in assay [3] (setting [27]) was 477 nM.

For PATLFVWYFW, the Kd in assay [6] (setting [29]) is 15500 nM; in assay [4] (setting [29]) it was 9290 nM; in [5] (setting [29]), 169 nM.

On to FIIKSSYVF, for which, in assay [3] (setting [25]), the Kd was 3.23 nM.

Take AFSMPLGVV: the IC50 in [1] (setting [30]) is 2820 nM; in assay [2] (setting [30]), 8990 nM.

As to SINNIDPHF, the Kd in assay [3] (setting [25]) is 12 nM.

As for KRASPILRF, the Kd was 87 nM in [7] and no less than 20000 nM in assay [8].

With LGFMNEDHW, in assay [5] (setting [29]), the Kd was 26.2 nM.

Turning to GTSADLTVEK, the Kd was 219 nM in assay [9] (setting [31]) and 3510 nM in [5] (setting [31]).

As to KAIKILTGF, the Kd in assay [4] (setting [27]) came out at 22.4 nM; in [5] (setting [27]) it was 66.7 nM.

Consider GSSKIRWIVE, for which the Kd is 2260 nM in assay [6] (setting [27]) and 868 nM in assay [5] (setting [27]).

As to IQAFEAGVD, the IC50 in [1] (setting [24]) is 32900 nM; in assay [2] (setting [24]) it was no less than 210000 nM.

Take MTTTANWLW: the values for the Kd in [4] (setting [27]), in assay [10] (setting [27]) and in assay [5] (setting [27]) were 1.05 nM, 2.5 nM and 1.62 nM, respectively.

Regarding GSSPIIEVKQ, the Kd in assay [5] (setting [27]) was determined as 17000 nM.

FITDNVHTW: the figures for the Kd in [4] (setting [26]) and in assay [10] (setting [26]) were 17.5 nM and 88.7 nM, respectively.

Sequence VGVNTQETI had an IC50 in assay [1] (setting [30]) of 7560 nM.

Turning to QSSSMRKTDW, the Kd in assay [4] (setting [31]) worked out at 75.8 nM; in assay [5] (setting [31]) it was 151 nM.

In the case of TVLGLGLSLK, the Kd in [9] (setting [25]) is 1.61 nM; in [11], no less than 61800 nM; in [12], no less than 51200 nM; in [13] (setting [25]), no less than 24000 nM; in [14], no less than 69900 nM; in [15] it was no less than 69400 nM. For the same sequence, the dissociation constant Kd in [16] is 73.6 nM; in [17], no less than 61300 nM; in [18] it was 898 nM; in assay [10] (setting [25]), no less than 69900 nM; in [19] it was 14400 nM; in assay [20], no less than 69800 nM. The equilibrium dissociation constant (Kd) was 19.3 nM in [21], no less than 70400 nM in [22] and no less than 69600 nM in [23].

In the case of RTSWALCEAL, the Kd in assay [5] (setting [31]) is 1710 nM.

Consider NIREIEEHM, for which the Kd in assay [3] (setting [25]) is 234 nM.

In the case of MAILGDTAW, the Kd in [13] (setting [26]) worked out at 33.1 nM; in assay [4] (setting [26]), 3.34 nM; in assay [10] (setting [26]), 9.79 nM; in [5] (setting [26]), 22.6 nM.

For FVVDNVHTW, the dissociation constant (Kd) in assay [4] (setting [28]) is 106 nM; in [10] (setting [28]), 8.45 nM.

The term IC50 denotes the concentration that inhibits the measured activity by half. Lower therefore signals higher potency. For orientation: Kd means the free concentration of one partner at which half of the binding sites on the other are occupied at equilibrium, for simple one-to-one binding.
